In US20260242419A1, “A CYCLIC PEPTIDE FOR TRAPPING INTERLEUKIN-1 BETA” (Merck Sharp & Dohme LLC, priority 2023, published 2026):
Starred links: 1 amine or outer side, 2 acyl side, 3 side chain; linkers in the order of their positions; H or OH if unused. Non-standard residues stand in square brackets, D forms with d. TyrEtNAc = (2S)-3-[4-(2-acetamidoethoxy)phenyl]-2-amino-propanoic acid, CC(=O)NCCOc1ccc(C[C@H](N[*:1])C(=O)[*:2])cc1; dPro(4R-(4-pyridylmethyl)) = O=C(O)[C@H]1C[C@@H](Cc2ccncc2)CN1; Trp(βS-Me,4-F) = C[C@@H](c1c[nH]c2cccc(F)c12)[C@H](N)C(=O)O; Bip(4'-CONH2) = NC(=O)c1ccc(-c2ccc(C[C@H](N)C(=O)O)cc2)cc1; Ala(1-bicyclo(1.1.1)pentyl) = N[C@@H](CC12CC(C1)C2)C(=O)O; dPro(3S-(4-F-Bn)) = O=C(O)[C@@H]1NCC[C@@H]1Cc1ccc(F)cc1; Ala(pyrimidin-5-yl) = N[C@@H](Cc1cncnc1)C(=O)O; Phe(4-CONH2) = NC(=O)c1ccc(C[C@H](N)C(=O)O)cc1; Phe(4-COOH) = N[C@@H](Cc1ccc(C(=O)O)cc1)C(=O)O; Pro(cis-4-F) = O=C(O)[C@@H]1C[C@H](F)CN1; Ala(4-THP) = N[C@@H](CC1CCOCC1)C(=O)O; d(αMeD) = C[C@@](N)(CC(=O)O)C(=O)O; 4Pal = N[C@@H](Cc1ccncc1)C(=O)O; d(αMeS) = C[C@@](N)(CO)C(=O)O; Dab = NCC[C@H](N)C(=O)O; Aib = CC(C)(N)C(=O)O

B1: SEQ ID NO 368 (peptide)
peptide: cyclo([TyrEtNAc][4Pal][Phe(4-COOH)]G[Pro(cis-4-F)][Trp(βS-Me,4-F)][Aib]SW[Aib][Ala(pyrimidin-5-yl)]Q[Dab]G[dPro(4R-(4-pyridylmethyl))])
SMILES: CC(=O)NCCOc1ccc(C[C@@H]2NC(=O)[C@H]3C[C@@H](Cc4ccncc4)CN3C(=O)CNC(=O)[C@H](CCN)NC(=O)[C@H](CCC(N)=O)NC(=O)[C@H](Cc3cncnc3)NC(=O)C(C)(C)NC(=O)[C@H](Cc3c[nH]c4ccccc34)NC(=O)[C@H](CO)NC(=O)C(C)(C)NC(=O)[C@H]([C@@H](C)c3c[nH]c4cccc(F)c34)NC(=O)[C@@H]3C[C@H](F)CN3C(=O)CNC(=O)[C@H](Cc3ccc(C(=O)O)cc3)NC(=O)[C@H](Cc3ccncc3)NC2=O)cc1
B2: SEQ ID NO 369 (peptide)
peptide: cyclo([TyrEtNAc][4Pal][Phe(4-COOH)]G[Pro(cis-4-F)][Trp(βS-Me,4-F)][Aib]SW[d(αMeD)][Ala(pyrimidin-5-yl)]Q[Dab]G[dPro(3S-(4-F-Bn))])
SMILES: CC(=O)NCCOc1ccc(C[C@@H]2NC(=O)[C@H]3[C@@H](Cc4ccc(F)cc4)CCN3C(=O)CNC(=O)[C@H](CCN)NC(=O)[C@H](CCC(N)=O)NC(=O)[C@H](Cc3cncnc3)NC(=O)[C@@](C)(CC(=O)O)NC(=O)[C@H](Cc3c[nH]c4ccccc34)NC(=O)[C@H](CO)NC(=O)C(C)(C)NC(=O)[C@H]([C@@H](C)c3c[nH]c4cccc(F)c34)NC(=O)[C@@H]3C[C@H](F)CN3C(=O)CNC(=O)[C@H](Cc3ccc(C(=O)O)cc3)NC(=O)[C@H](Cc3ccncc3)NC2=O)cc1
B3: SEQ ID NO 370 (peptide)
peptide: cyclo([TyrEtNAc][Ala(1-bicyclo(1.1.1)pentyl)][Phe(4-COOH)]G[Pro(cis-4-F)][Trp(βS-Me,4-F)][Aib]SW[d(αMeD)][Ala(4-THP)]Q[Dab]G[dPro(3S-(4-F-Bn))])
SMILES: CC(=O)NCCOc1ccc(C[C@@H]2NC(=O)[C@H]3[C@@H](Cc4ccc(F)cc4)CCN3C(=O)CNC(=O)[C@H](CCN)NC(=O)[C@H](CCC(N)=O)NC(=O)[C@H](CC3CCOCC3)NC(=O)[C@@](C)(CC(=O)O)NC(=O)[C@H](Cc3c[nH]c4ccccc34)NC(=O)[C@H](CO)NC(=O)C(C)(C)NC(=O)[C@H]([C@@H](C)c3c[nH]c4cccc(F)c34)NC(=O)[C@@H]3C[C@H](F)CN3C(=O)CNC(=O)[C@H](Cc3ccc(C(=O)O)cc3)NC(=O)[C@H](CC34CC(C3)C4)NC2=O)cc1
B4: SEQ ID NO 371 (peptide)
peptide: cyclo([TyrEtNAc][Ala(1-bicyclo(1.1.1)pentyl)][Phe(4-COOH)]G[Pro(cis-4-F)][Trp(βS-Me,4-F)][Aib]SW[d(αMeS)][Ala(4-THP)]Q[Dab]G[dPro(3S-(4-F-Bn))])
SMILES: CC(=O)NCCOc1ccc(C[C@@H]2NC(=O)[C@H]3[C@@H](Cc4ccc(F)cc4)CCN3C(=O)CNC(=O)[C@H](CCN)NC(=O)[C@H](CCC(N)=O)NC(=O)[C@H](CC3CCOCC3)NC(=O)[C@@](C)(CO)NC(=O)[C@H](Cc3c[nH]c4ccccc34)NC(=O)[C@H](CO)NC(=O)C(C)(C)NC(=O)[C@H]([C@@H](C)c3c[nH]c4cccc(F)c34)NC(=O)[C@@H]3C[C@H](F)CN3C(=O)CNC(=O)[C@H](Cc3ccc(C(=O)O)cc3)NC(=O)[C@H](CC34CC(C3)C4)NC2=O)cc1
B5: SEQ ID NO 372 (peptide)
peptide: cyclo([TyrEtNAc][4Pal][Phe(4-COOH)]G[Pro(cis-4-F)][Trp(βS-Me,4-F)][Aib]SW[d(αMeD)][Ala(4-THP)]Q[Dab]G[dPro(3S-(4-F-Bn))])
SMILES: CC(=O)NCCOc1ccc(C[C@@H]2NC(=O)[C@H]3[C@@H](Cc4ccc(F)cc4)CCN3C(=O)CNC(=O)[C@H](CCN)NC(=O)[C@H](CCC(N)=O)NC(=O)[C@H](CC3CCOCC3)NC(=O)[C@@](C)(CC(=O)O)NC(=O)[C@H](Cc3c[nH]c4ccccc34)NC(=O)[C@H](CO)NC(=O)C(C)(C)NC(=O)[C@H]([C@@H](C)c3c[nH]c4cccc(F)c34)NC(=O)[C@@H]3C[C@H](F)CN3C(=O)CNC(=O)[C@H](Cc3ccc(C(=O)O)cc3)NC(=O)[C@H](Cc3ccncc3)NC2=O)cc1
B6: SEQ ID NO 373 (peptide)
peptide: cyclo([TyrEtNAc][Ala(1-bicyclo(1.1.1)pentyl)][Phe(4-CONH2)]G[Pro(cis-4-F)][Trp(βS-Me,4-F)][Aib]SW[d(αMeD)][Ala(4-THP)]Q[Dab]G[dPro(3S-(4-F-Bn))])
SMILES: CC(=O)NCCOc1ccc(C[C@@H]2NC(=O)[C@H]3[C@@H](Cc4ccc(F)cc4)CCN3C(=O)CNC(=O)[C@H](CCN)NC(=O)[C@H](CCC(N)=O)NC(=O)[C@H](CC3CCOCC3)NC(=O)[C@@](C)(CC(=O)O)NC(=O)[C@H](Cc3c[nH]c4ccccc34)NC(=O)[C@H](CO)NC(=O)C(C)(C)NC(=O)[C@H]([C@@H](C)c3c[nH]c4cccc(F)c34)NC(=O)[C@@H]3C[C@H](F)CN3C(=O)CNC(=O)[C@H](Cc3ccc(C(N)=O)cc3)NC(=O)[C@H](CC34CC(C3)C4)NC2=O)cc1
B7: SEQ ID NO 374 (peptide)
peptide: cyclo([TyrEtNAc][Ala(1-bicyclo(1.1.1)pentyl)][Phe(4-COOH)]G[Pro(cis-4-F)][Trp(βS-Me,4-F)][Aib]SW[d(αMeD)][Ala(4-THP)]Q[Dab]G[dPro(4R-(4-pyridylmethyl))])
SMILES: CC(=O)NCCOc1ccc(C[C@@H]2NC(=O)[C@H]3C[C@@H](Cc4ccncc4)CN3C(=O)CNC(=O)[C@H](CCN)NC(=O)[C@H](CCC(N)=O)NC(=O)[C@H](CC3CCOCC3)NC(=O)[C@@](C)(CC(=O)O)NC(=O)[C@H](Cc3c[nH]c4ccccc34)NC(=O)[C@H](CO)NC(=O)C(C)(C)NC(=O)[C@H]([C@@H](C)c3c[nH]c4cccc(F)c34)NC(=O)[C@@H]3C[C@H](F)CN3C(=O)CNC(=O)[C@H](Cc3ccc(C(=O)O)cc3)NC(=O)[C@H](CC34CC(C3)C4)NC2=O)cc1
B8: SEQ ID NO 375 (peptide)
peptide: cyclo([TyrEtNAc][Ala(1-bicyclo(1.1.1)pentyl)][Phe(4-COOH)]G[Pro(cis-4-F)][Trp(βS-Me,4-F)][Aib]SW[d(αMeS)][Ala(4-THP)]Q[Dab]G[dPro(4R-(4-pyridylmethyl))])
SMILES: CC(=O)NCCOc1ccc(C[C@@H]2NC(=O)[C@H]3C[C@@H](Cc4ccncc4)CN3C(=O)CNC(=O)[C@H](CCN)NC(=O)[C@H](CCC(N)=O)NC(=O)[C@H](CC3CCOCC3)NC(=O)[C@@](C)(CO)NC(=O)[C@H](Cc3c[nH]c4ccccc34)NC(=O)[C@H](CO)NC(=O)C(C)(C)NC(=O)[C@H]([C@@H](C)c3c[nH]c4cccc(F)c34)NC(=O)[C@@H]3C[C@H](F)CN3C(=O)CNC(=O)[C@H](Cc3ccc(C(=O)O)cc3)NC(=O)[C@H](CC34CC(C3)C4)NC2=O)cc1
B9: SEQ ID NO 376 (peptide)
peptide: cyclo([TyrEtNAc][Ala(1-bicyclo(1.1.1)pentyl)][Phe(4-CONH2)]G[Pro(cis-4-F)][Trp(βS-Me,4-F)][Aib]SW[d(αMeD)][Ala(4-THP)]Q[Dab]G[dPro(4R-(4-pyridylmethyl))])
SMILES: CC(=O)NCCOc1ccc(C[C@@H]2NC(=O)[C@H]3C[C@@H](Cc4ccncc4)CN3C(=O)CNC(=O)[C@H](CCN)NC(=O)[C@H](CCC(N)=O)NC(=O)[C@H](CC3CCOCC3)NC(=O)[C@@](C)(CC(=O)O)NC(=O)[C@H](Cc3c[nH]c4ccccc34)NC(=O)[C@H](CO)NC(=O)C(C)(C)NC(=O)[C@H]([C@@H](C)c3c[nH]c4cccc(F)c34)NC(=O)[C@@H]3C[C@H](F)CN3C(=O)CNC(=O)[C@H](Cc3ccc(C(N)=O)cc3)NC(=O)[C@H](CC34CC(C3)C4)NC2=O)cc1
B10: SEQ ID NO 377 (peptide)
peptide: cyclo([TyrEtNAc][4Pal][Phe(4-CONH2)]G[Pro(cis-4-F)][Trp(βS-Me,4-F)][Aib]SW[d(αMeD)][Ala(4-THP)]Q[Dab]G[dPro(4R-(4-pyridylmethyl))])
SMILES: CC(=O)NCCOc1ccc(C[C@@H]2NC(=O)[C@H]3C[C@@H](Cc4ccncc4)CN3C(=O)CNC(=O)[C@H](CCN)NC(=O)[C@H](CCC(N)=O)NC(=O)[C@H](CC3CCOCC3)NC(=O)[C@@](C)(CC(=O)O)NC(=O)[C@H](Cc3c[nH]c4ccccc34)NC(=O)[C@H](CO)NC(=O)C(C)(C)NC(=O)[C@H]([C@@H](C)c3c[nH]c4cccc(F)c34)NC(=O)[C@@H]3C[C@H](F)CN3C(=O)CNC(=O)[C@H](Cc3ccc(C(N)=O)cc3)NC(=O)[C@H](Cc3ccncc3)NC2=O)cc1
B11: SEQ ID NO 378 (peptide)
peptide: cyclo([TyrEtNAc][4Pal][Phe(4-CONH2)]G[Pro(cis-4-F)][Trp(βS-Me,4-F)][Aib]SW[d(αMeS)][Ala(4-THP)]Q[Dab]G[dPro(4R-(4-pyridylmethyl))])
SMILES: CC(=O)NCCOc1ccc(C[C@@H]2NC(=O)[C@H]3C[C@@H](Cc4ccncc4)CN3C(=O)CNC(=O)[C@H](CCN)NC(=O)[C@H](CCC(N)=O)NC(=O)[C@H](CC3CCOCC3)NC(=O)[C@@](C)(CO)NC(=O)[C@H](Cc3c[nH]c4ccccc34)NC(=O)[C@H](CO)NC(=O)C(C)(C)NC(=O)[C@H]([C@@H](C)c3c[nH]c4cccc(F)c34)NC(=O)[C@@H]3C[C@H](F)CN3C(=O)CNC(=O)[C@H](Cc3ccc(C(N)=O)cc3)NC(=O)[C@H](Cc3ccncc3)NC2=O)cc1
B12: SEQ ID NO 379 (peptide)
peptide: cyclo([Bip(4'-CONH2)][4Pal][Phe(4-COOH)]G[Pro(cis-4-F)][Trp(βS-Me,4-F)][Aib]SW[d(αMeD)][Ala(pyrimidin-5-yl)]Q[Dab]G[dPro(3S-(4-F-Bn))])
SMILES: C[C@@H](c1c[nH]c2cccc(F)c12)[C@@H]1NC(=O)[C@@H]2C[C@H](F)CN2C(=O)CNC(=O)[C@H](Cc2ccc(C(=O)O)cc2)NC(=O)[C@H](Cc2ccncc2)NC(=O)[C@H](Cc2ccc(-c3ccc(C(N)=O)cc3)cc2)NC(=O)[C@H]2[C@@H](Cc3ccc(F)cc3)CCN2C(=O)CNC(=O)[C@H](CCN)NC(=O)[C@H](CCC(N)=O)NC(=O)[C@H](Cc2cncnc2)NC(=O)[C@@](C)(CC(=O)O)NC(=O)[C@H](Cc2c[nH]c3ccccc23)NC(=O)[C@H](CO)NC(=O)C(C)(C)NC1=O

Target: Recombinant human IL-1β (BioLegend 579404) (human, UniProt P01584 117-269)
Assay: cell-based or functional assay

Binder | MRC5 IC50
B1 | 0.022 nM
B2 | 0.021 nM
B3 | 0.015 nM
B4 | 0.014 nM
B5 | 0.009 nM
B6 | 0.012 nM
B7 | 0.017 nM
B8 | 0.025 nM
B9 | 0.048 nM
B10 | 0.04 nM
B11 | 0.043 nM
B12 | 0.016 nM
